Laboratory results reported in the Human Domainome abundance scans (Beltran et al. 2025).
± gives the uncertainty stated by the source.

B1: Tumor protein 63, residues 545 to 610; numbered along this chain, Q9H3D4 (parent)
chain: TDCSIVSFLARLGCSSCLDYFTTQGLTTIYQIEHYSMDDLASLKIPEQFRHAIWKGILDHRQLHEF

Variants of: B1
Assay: abundance fitness (aPCA) (normalised: wild type 0, dead -1); higher = more abundant; growth selection in yeast, the domain comes from the species named
Settings: Homo sapiens

Variant | abundance fitness
TDCSIVSFMARLGCSSCLDYFTTQGLTTIYQIEHYSMDDLASLKIPEQFRHAIWKGILDHRQLHEF [L9M] | -0.272 ± 0.036
TDCSIVSFKARLGCSSCLDYFTTQGLTTIYQIEHYSMDDLASLKIPEQFRHAIWKGILDHRQLHEF [L9K] | -1 ± 0.09
TDCSIVSFWARLGCSSCLDYFTTQGLTTIYQIEHYSMDDLASLKIPEQFRHAIWKGILDHRQLHEF [L9W] | -0.955 ± 0.041
TDCSIVSFPARLGCSSCLDYFTTQGLTTIYQIEHYSMDDLASLKIPEQFRHAIWKGILDHRQLHEF [L9P] | -0.928 ± 0.14
TDCSIVSFCARLGCSSCLDYFTTQGLTTIYQIEHYSMDDLASLKIPEQFRHAIWKGILDHRQLHEF [L9C] | -0.344 ± 0.06
TDCSIVSFSARLGCSSCLDYFTTQGLTTIYQIEHYSMDDLASLKIPEQFRHAIWKGILDHRQLHEF [L9S] | -0.869 ± 0.043
TDCSIVSFEARLGCSSCLDYFTTQGLTTIYQIEHYSMDDLASLKIPEQFRHAIWKGILDHRQLHEF [L9E] | -0.666 ± 0.054
TDCSIVSFAARLGCSSCLDYFTTQGLTTIYQIEHYSMDDLASLKIPEQFRHAIWKGILDHRQLHEF [L9A] | -1 ± 0.093
TDCSIVSFQARLGCSSCLDYFTTQGLTTIYQIEHYSMDDLASLKIPEQFRHAIWKGILDHRQLHEF [L9Q] | -1.03 ± 0.11
TDCSIVSFIARLGCSSCLDYFTTQGLTTIYQIEHYSMDDLASLKIPEQFRHAIWKGILDHRQLHEF [L9I] | -0.421 ± 0.059
TDCSIVSFFARLGCSSCLDYFTTQGLTTIYQIEHYSMDDLASLKIPEQFRHAIWKGILDHRQLHEF [L9F] | -0.626 ± 0.07
TDCSIVSFRARLGCSSCLDYFTTQGLTTIYQIEHYSMDDLASLKIPEQFRHAIWKGILDHRQLHEF [L9R] | -0.83 ± 0.039
TDCSIVSFDARLGCSSCLDYFTTQGLTTIYQIEHYSMDDLASLKIPEQFRHAIWKGILDHRQLHEF [L9D] | -0.474 ± 0.15
TDCSIVSFTARLGCSSCLDYFTTQGLTTIYQIEHYSMDDLASLKIPEQFRHAIWKGILDHRQLHEF [L9T] | -1.04 ± 0.1
TDCSIVSFYARLGCSSCLDYFTTQGLTTIYQIEHYSMDDLASLKIPEQFRHAIWKGILDHRQLHEF [L9Y] | -0.783 ± 0.12
TDCSIVSFHARLGCSSCLDYFTTQGLTTIYQIEHYSMDDLASLKIPEQFRHAIWKGILDHRQLHEF [L9H] | -1.02 ± 0.37
TDCSIVSFNARLGCSSCLDYFTTQGLTTIYQIEHYSMDDLASLKIPEQFRHAIWKGILDHRQLHEF [L9N] | -0.814 ± 0.14
TDCSIVSFGARLGCSSCLDYFTTQGLTTIYQIEHYSMDDLASLKIPEQFRHAIWKGILDHRQLHEF [L9G] | -0.622 ± 0.039
TDCSIVSFLACLGCSSCLDYFTTQGLTTIYQIEHYSMDDLASLKIPEQFRHAIWKGILDHRQLHEF [R11C] | -0.155 ± 0.035
TDCSIVSFLAELGCSSCLDYFTTQGLTTIYQIEHYSMDDLASLKIPEQFRHAIWKGILDHRQLHEF [R11E] | -0.038 ± 0.026
TDCSIVSFLADLGCSSCLDYFTTQGLTTIYQIEHYSMDDLASLKIPEQFRHAIWKGILDHRQLHEF [R11D] | -0.09 ± 0.029

Variant | abundance fitness
TDCSIVSFLTRLGCSSCLDYFTTQGLTTIYQIEHYSMDDLASLKIPEQFRHAIWKGILDHRQLHEF [A10T] | -0.134 ± 0.065
TDCSIVSFLDRLGCSSCLDYFTTQGLTTIYQIEHYSMDDLASLKIPEQFRHAIWKGILDHRQLHEF [A10D] | -0.145 ± 0.033
TDCSIVSFLLRLGCSSCLDYFTTQGLTTIYQIEHYSMDDLASLKIPEQFRHAIWKGILDHRQLHEF [A10L] | -0.063 ± 0.037
TDCSIVSFLERLGCSSCLDYFTTQGLTTIYQIEHYSMDDLASLKIPEQFRHAIWKGILDHRQLHEF [A10E] | -0.003 ± 0.061
TDCSIVSFLVRLGCSSCLDYFTTQGLTTIYQIEHYSMDDLASLKIPEQFRHAIWKGILDHRQLHEF [A10V] | -0.15 ± 0.039
TDCSIVSFLGRLGCSSCLDYFTTQGLTTIYQIEHYSMDDLASLKIPEQFRHAIWKGILDHRQLHEF [A10G] | -0.1 ± 0.035
TDCSIVSFLYRLGCSSCLDYFTTQGLTTIYQIEHYSMDDLASLKIPEQFRHAIWKGILDHRQLHEF [A10Y] | -0.164 ± 0.029
TDCSIVSFLWRLGCSSCLDYFTTQGLTTIYQIEHYSMDDLASLKIPEQFRHAIWKGILDHRQLHEF [A10W] | -0.18 ± 0.054
TDCSIVSFLSRLGCSSCLDYFTTQGLTTIYQIEHYSMDDLASLKIPEQFRHAIWKGILDHRQLHEF [A10S] | -0.104 ± 0.025
TDCSIVSFLFRLGCSSCLDYFTTQGLTTIYQIEHYSMDDLASLKIPEQFRHAIWKGILDHRQLHEF [A10F] | -0.167 ± 0.028
TDCSIVSFLHRLGCSSCLDYFTTQGLTTIYQIEHYSMDDLASLKIPEQFRHAIWKGILDHRQLHEF [A10H] | -0.16 ± 0.053
TDCSIVSFLQRLGCSSCLDYFTTQGLTTIYQIEHYSMDDLASLKIPEQFRHAIWKGILDHRQLHEF [A10Q] | -0.15 ± 0.27
TDCSIVSFLKRLGCSSCLDYFTTQGLTTIYQIEHYSMDDLASLKIPEQFRHAIWKGILDHRQLHEF [A10K] | -0.092 ± 0.1
TDCSIVSFLNRLGCSSCLDYFTTQGLTTIYQIEHYSMDDLASLKIPEQFRHAIWKGILDHRQLHEF [A10N] | -0.146 ± 0.054
TDCSIVSFLCRLGCSSCLDYFTTQGLTTIYQIEHYSMDDLASLKIPEQFRHAIWKGILDHRQLHEF [A10C] | -0.214 ± 0.029
TDCSIVSFLIRLGCSSCLDYFTTQGLTTIYQIEHYSMDDLASLKIPEQFRHAIWKGILDHRQLHEF [A10I] | -0.203 ± 0.027
TDCSIVSTLARLGCSSCLDYFTTQGLTTIYQIEHYSMDDLASLKIPEQFRHAIWKGILDHRQLHEF [F8T] | -0.592 ± 0.05
TDCSIVSYLARLGCSSCLDYFTTQGLTTIYQIEHYSMDDLASLKIPEQFRHAIWKGILDHRQLHEF [F8Y] | -0.329 ± 0.048
TDCSIVSWLARLGCSSCLDYFTTQGLTTIYQIEHYSMDDLASLKIPEQFRHAIWKGILDHRQLHEF [F8W] | -0.024 ± 0.041
TDCSIVSSLARLGCSSCLDYFTTQGLTTIYQIEHYSMDDLASLKIPEQFRHAIWKGILDHRQLHEF [F8S] | -0.822 ± 0.044
